Results from the Immune Epitope Database (IEDB).

Assays:
[1] = molecular target: HLA-B*14:02; test: IEDB peptide-MHC binding, purified MHC/competitive/fluorescence; ≥ and ≤ were set here for values at or beyond the usual limits of such assays; conditions: source organism: Rattus norvegicus
[2] = molecular target: HLA-A*29:02; test: as above; conditions: source organism: Rattus norvegicus
[3] = molecular target: HLA-A*68:02; test: as above; conditions: source organism: Rattus norvegicus
[4] = molecular target: HLA-B*07:02; test: as above; conditions: source organism: Rattus norvegicus
[5] = molecular target: HLA-B*18:01; test: as above; conditions: source organism: Rattus norvegicus
[6] = molecular target: HLA-B*37:01; test: as above; conditions: source organism: Rattus norvegicus
[7] = molecular target: HLA-A*11:01; test: as above; conditions: source organism: Rattus norvegicus
[8] = molecular target: HLA-A*02:01; test: as above; conditions: source organism: Rattus norvegicus
[9] = molecular target: HLA-B*51:01; test: as above; conditions: source organism: Rattus norvegicus
[10] = molecular target: HLA-B*53:01; test: as above; conditions: source organism: Rattus norvegicus
[11] = molecular target: HLA-B*44:03; test: as above; conditions: source organism: Rattus norvegicus
[12] = molecular target: HLA-A*25:01; test: as above; conditions: source organism: Rattus norvegicus
[13] = molecular target: HLA-B*35:01; test: as above; conditions: source organism: Rattus norvegicus
[14] = molecular target: HLA-B*40:02; test: as above; conditions: source organism: Rattus norvegicus
[15] = molecular target: HLA-A*01:01; test: as above; conditions: source organism: Rattus norvegicus
[16] = molecular target: HLA-A*31:01; test: as above; conditions: source organism: Rattus norvegicus
[17] = molecular target: HLA-B*08:01; test: as above; conditions: source organism: Rattus norvegicus
[18] = molecular target: HLA-B*58:01; test: as above; conditions: source organism: Rattus norvegicus
[19] = molecular target: HLA-A*24:02; test: as above; conditions: source organism: Rattus norvegicus
[20] = molecular target: HLA-A*03:01; test: as above; conditions: source organism: Rattus norvegicus
[21] = molecular target: HLA-A*02:11; test: IEDB peptide-MHC binding, purified MHC/direct/fluorescence; filed as Kd, often an IC50 or EC50 that approximates it; ≥ and ≤ were set here for values at or beyond the usual limits of such assays; conditions: source organism: Campylobacter jejuni
[22] = molecular target: HLA-A*26:01; test: as above; conditions: source organism: Campylobacter jejuni
[23] = molecular target: HLA-B*15:01; test: as above; conditions: source organism: Campylobacter jejuni
[24] = molecular target: HLA-B*18:01; test: as above; conditions: source organism: Campylobacter jejuni
[25] = molecular target: HLA-B*46:01; test: as above; conditions: source organism: Campylobacter jejuni
[26] = molecular target: HLA-B*57:01; test: as above; conditions: source organism: Campylobacter jejuni
[27] = molecular target: HLA-B*51:01; test: as above; conditions: source organism: Campylobacter jejuni
[28] = molecular target: HLA-A*02:03; test: as above; conditions: source organism: Campylobacter jejuni
[29] = molecular target: HLA-A*25:01; test: as above; conditions: source organism: Campylobacter jejuni
[30] = molecular target: HLA-C*04:01; test: as above; conditions: source organism: Campylobacter jejuni
[31] = molecular target: HLA-A*80:01; test: as above; conditions: source organism: Campylobacter jejuni
[32] = molecular target: HLA-B*39:01; test: as above; conditions: source organism: Campylobacter jejuni
[33] = molecular target: HLA-A*02:19; test: as above; conditions: source organism: Campylobacter jejuni
[34] = molecular target: HLA-B*27:03; test: as above; conditions: source organism: Campylobacter jejuni
[35] = molecular target: HLA-A*02:12; test: as above; conditions: source organism: Campylobacter jejuni
[36] = molecular target: HLA-A*03:01; test: as above; conditions: source organism: Campylobacter jejuni
[37] = molecular target: HLA-B*14:02; test: IEDB peptide-MHC binding, purified MHC/competitive/fluorescence; filed as Kd, often an IC50 or EC50 that approximates it; ≥ and ≤ were set here for values at or beyond the usual limits of such assays; conditions: source organism: Entamoeba dispar SAW760
[38] = molecular target: HLA-B*07:02; test: as above; conditions: source organism: Entamoeba dispar SAW760
[39] = molecular target: HLA-A*30:02; test: as above; conditions: source organism: Entamoeba dispar SAW760
[40] = molecular target: HLA-A*30:01; test: as above; conditions: source organism: Entamoeba dispar SAW760
[41] = molecular target: HLA-B*27:05; test: as above; conditions: source organism: Entamoeba dispar SAW760
[42] = molecular target: HLA-A*11:01; test: as above; conditions: source organism: Entamoeba dispar SAW760
[43] = molecular target: HLA-B*44:02; test: as above; conditions: source organism: Entamoeba dispar SAW760
[44] = molecular target: HLA-B*53:01; test: as above; conditions: source organism: Entamoeba dispar SAW760
[45] = molecular target: HLA-A*66:01; test: as above; conditions: source organism: Entamoeba dispar SAW760
[46] = molecular target: HLA-A*01:01; test: as above; conditions: source organism: Entamoeba dispar SAW760
[47] = molecular target: HLA-B*08:01; test: as above; conditions: source organism: Entamoeba dispar SAW760
[48] = molecular target: HLA-B*58:01; test: as above; conditions: source organism: Entamoeba dispar SAW760

In the case of SLLERGQQLGV, the IC50 [1] is reported as no less than 20 µM, the IC50 [2] is reported as 17.8 µM and the IC50 [3] is reported as 914 nM. For the same sequence, the IC50 [4] was no less than 20 µM, the IC50 [5] was no less than 20 µM and the IC50 [6] was no less than 20 µM. For the same sequence, the IC50 [7] was no less than 20 µM, the IC50 [8] was 18.7 nM and the IC50 [9] was no less than 20 µM. The IC50 [10] was no less than 20 µM, the IC50 [11] was no less than 20 µM and the IC50 [12] was no less than 20 µM. It also gave an IC50 [13] of no less than 20 µM, an IC50 [14] of no less than 20 µM and an IC50 [15] of no less than 20 µM. For the same sequence, the IC50 [16] was no less than 20 µM, the IC50 [17] was no less than 20 µM and the IC50 [18] was no less than 20 µM. It also gave an IC50 [19] of 6.08 µM and an IC50 [20] of no less than 20 µM.
YWDQVTFFY gave a Kd [21] of no less than 20 µM, a Kd [22] of no less than 20 µM and a Kd [23] of no less than 20 µM. It also gave a Kd [24] of no less than 20 µM, a Kd [25] of no less than 20 µM and a Kd [26] of no less than 20 µM. For the same sequence, the Kd [27] was no less than 20 µM, the Kd [28] was no less than 20 µM and the Kd [29] was no less than 20 µM. The Kd [30] was no less than 20 µM, the Kd [31] was 56 nM and the Kd [32] was no less than 20 µM. For the same sequence, the Kd [33] was no less than 20 µM, the Kd [34] was no less than 20 µM and the Kd [35] was no less than 20 µM. For the same sequence, the Kd [36] was no less than 20 µM.
In the case of SQYDPKELL, the Kd [37] is reported as no less than 5 µM, the Kd [38] is reported as no less than 5 µM and the Kd [39] is reported as no less than 5 µM. For the same sequence, the Kd [40] was no less than 5 µM, the Kd [41] was no less than 5 µM and the Kd [42] was no less than 5 µM. For the same sequence, the Kd [43] was no less than 5 µM, the Kd [44] was no less than 5 µM and the Kd [45] was no less than 5 µM. For the same sequence, the Kd [46] was no less than 5 µM, the Kd [47] was no less than 5 µM and the Kd [48] was no less than 5 µM.
